Literature values in patent US6726924B2, “Oral liposomal delivery system” (Biozone Laboratories, Inc., priority 1997, dated 2004).

Details: oral; free vs liposomes with ceramides; Regnault et al. 1996

For superoxide dismutase, the bioavailability is listed as 14%.
